The target of data set [1] is T1, EpCAM (epithelial cell adhesion molecule) (UniProt P16422 24-265).
T1 sequence: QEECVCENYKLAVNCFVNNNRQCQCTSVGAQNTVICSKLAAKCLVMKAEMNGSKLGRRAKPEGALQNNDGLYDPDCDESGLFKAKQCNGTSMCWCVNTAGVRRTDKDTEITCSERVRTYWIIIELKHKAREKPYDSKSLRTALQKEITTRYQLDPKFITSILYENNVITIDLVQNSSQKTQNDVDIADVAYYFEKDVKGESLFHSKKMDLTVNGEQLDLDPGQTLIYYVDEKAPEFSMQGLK
Description: ACP fluorescence switching.

Data set [2] concerns the target T1, EpCAM (epithelial cell adhesion …). Description: ACP fluorescence switching. This is another data set of the same source.

Read-outs that look alike come from different tables or passages of the source.

B1: random sequence ACP (ssDNA)
DNA: TAAGTATATCGTGCCTGCGACTATGTTATGATGAGGCAGTCTTTAACCTGACTCGTAATA
modifications: 5' conjugated to polydiacetylene as JYK-01
With B1, the binding result in data set [1] is recorded as “no binding”.

B2: JYK-01 ACP (polydiacetylene conjugate) (ssDNA)
DNA: TGAAGGTTCGTTGTTTCGGTGGGTGTAGACTCTTTAGAAGAGATACAGATTTTGGGAATG
modifications: 5' amine coupled to diacetylene monomer (TCDA) in polydiacetylene particle
On to B2, for which the binding result in data set [2] is listed as “binds”.

(Values after article PMC4277889.)
